For this assay, the target named is T1, His6-tagged STAT3, bacterially derived (UniProt P40763 1-770).
T1 construct: also called His6-STAT3; His6-St3; source: E. coli BL21(DE3), purified (Ni-NTA, eluted with imidazole)
Kind of assay: pull-down. The note with it: both partners purified.

Consider one molecule from paper PMC10695398 (PLOS Pathogens, 2023).

T1 sequence (P40763 whole entry): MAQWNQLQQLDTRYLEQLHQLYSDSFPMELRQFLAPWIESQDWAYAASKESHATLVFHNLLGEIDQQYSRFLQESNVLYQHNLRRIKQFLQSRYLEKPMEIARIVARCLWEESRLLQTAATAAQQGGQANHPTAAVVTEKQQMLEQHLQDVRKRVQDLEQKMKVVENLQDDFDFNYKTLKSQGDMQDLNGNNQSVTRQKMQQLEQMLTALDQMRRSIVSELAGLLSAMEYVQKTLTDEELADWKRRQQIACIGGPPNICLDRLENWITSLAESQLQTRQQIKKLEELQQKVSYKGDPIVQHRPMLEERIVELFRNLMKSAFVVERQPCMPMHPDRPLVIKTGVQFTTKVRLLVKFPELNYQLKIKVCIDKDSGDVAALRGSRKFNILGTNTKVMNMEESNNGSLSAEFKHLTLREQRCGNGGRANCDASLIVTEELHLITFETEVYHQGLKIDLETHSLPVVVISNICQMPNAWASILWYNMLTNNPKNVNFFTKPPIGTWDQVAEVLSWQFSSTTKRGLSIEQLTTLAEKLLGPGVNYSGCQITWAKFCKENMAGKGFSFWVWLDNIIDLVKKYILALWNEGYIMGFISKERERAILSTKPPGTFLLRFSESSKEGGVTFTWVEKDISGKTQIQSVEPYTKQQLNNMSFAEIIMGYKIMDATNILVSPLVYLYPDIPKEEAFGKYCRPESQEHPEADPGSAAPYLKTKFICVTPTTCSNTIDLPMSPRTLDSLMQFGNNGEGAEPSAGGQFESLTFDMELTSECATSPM

B1: GST-tagged vIRF-1, bacterially derived (natural protein)
chain: MDPGQRPNPFGAPGAIPKKPCLSQGSPGTSGSGAPCDEPSRSESPGEGPSGTGGSAAAGDITRQAVVAAITEWSRTRQLRISTGASEGKASIKDWIVCQVNSGKFPGVEWEDEERTRFRIPVTPLADPCFEWRRDGELGVVYIRERGNMPVDASFKGTRGRRRMLAALRRTRGLQEIGKGISQDGHHFLVFRVRKPEEEQCVECGVVAGAVHDFNNMARLLQEGFFSPGQCLPGEIVTPVPSCTTAEGQEAVIDWGRLFIRMYYNGEQVHELLTTSQSGCRISSALRRDPAVHYCAVGSPGQVWLPNVPNLACEIAKRELCDTLDACAKGILLTSSCNGIFCVCYHNGPVHFIGNTVPPDSGPLLLPQGKPTRIFNPNTFLVGLANSPLPAPSHVTCPLVKLWLGKPVAVGKLEPHAPSPRDFAARCSNFSDACVVLEIMPKPLWDAMQ
notes: also called GST-fused vIRF-1; vIRF-1-GST
As to B1, the binding result was “binds”.
